Read-outs that look alike come from different tables or passages of the source.
B1: soluble HCV E2 ectodomain (sE2) (protein)
chain: GTTTVGGAVARSTNVIAGVFSHGPQQNIQLINTNGSWHINRTALNCNDSLNTGFLAALFYTNRFNSSGCPGRLSACRNIEAFRIGWGTLQYEDNVTNPEDMRPYCWHYPPKPCGVVPARSVCGPVYCFTPSPVVVGTTDRRGVPTYTWGENETDVFLLNSTRPPQGSWFGCTWMNSTGFTKTCGAPPCRTRADFNASTDLLCPTDCFRKHPDATYIKCGSGPWLTPKCLVHYPYRLWHYPCTVNFTIFKIRMYVGGVEHRLTAACNFTRGDRCDLEDRDRSQLSPLLHSTTEWAILPCTYSDLPALSTGLLHLHQNIVDVQYMYGLSPAITKYVVR
B2: E2_S2_1 (design 2K6Z_01), epitope scaffold displaying HCV E2 epitope I (protein)
chain: MGSFTEGWVRFSPGPNAAAYLTLENPGDLPLRLVGARTPVAERVELWETQLINTNGSWHIGSRPVPFLEVPPKGRVELSPGGYYFHLLGLKRPLKAGEEVELDLLFAGGKVLKVVLPVEARGSENLYFQ

Key:
Fab AP33 (Mus musculus) [1] = conditions: domain or fragment; Disulfide-linked heavy and light Fab chains. No candidate fits and the paper prints no AP33 sequence. PDB 4GAG (murine AP33 Fab with the E2 412-423 peptide) is cited from memory; entities 1 and 2 are assumed to be the antibody chains, and the peptide entity is excluded. The C-terminal double Strep tag on the heavy chain is omitted. The constant-region species of the S2-expressed Fab is not given; modification not given
Fab AP33 (Mus musculus) [2] = conditions: other; Disulfide-linked heavy and light Fab chains. No candidate fits and the paper prints no AP33 sequence. PDB 4GAG (murine AP33 Fab with the E2 412-423 peptide) is cited from memory; entities 1 and 2 are assumed to be the antibody chains, and the peptide entity is excluded. The C-terminal double Strep tag on the heavy chain is omitted. The constant-region species of the S2-expressed Fab is not given; modification not given

Binder | Kd (Fab AP33 (Mus musculus) [1]) [µM] | Kd (Fab AP33 (Mus musculus) [2]) [µM]
B1 | 0.0584 | 
B2 |  | 0.0449

— publication PMC11623273
